Measurements from the DeepSol protein solubility set.

assay: soluble on expression in E. coli; label from the status in PepcDB or PDB records

Row | Sequence | soluble on expression in E. coli
1 | MELIRWAIELGESVHGNTYEELMPLLDYYYDRDHLKAYCIANLLLNMDVLDEDRERIELRRCIAAYYAGLYKVARKHANELVLKHPDVDLYKNNLRLMEVYLNKEYDYCLFICPKTYGSFIDIARALKWRLEQEGNTVIISETILENVKNTVVFGAHTYAYNPNLLPKDAIVYNLEQLYEGSPYAHPLYLILLKDRVIWDYSKQNIEWLKQKGVGKEIKHVEMNYAPTLEIKKDAFEDEIIEDIDILFIGALNPRRQAIFDHLKAIAPNLNIVFKNNAWGIVRNELIARAKIILNIHFYLSGILETPRVSYAVANKKFIISENSNPEDEVEWPGIVFTPYEKIIENVMKYIELPEERKRLAEKAYNHFEANESLGTLSMRDETK | not soluble
2 | MAHHHHHHMPRKETKKRKRAPSSAKESVSSTDEQGKRGGAFSKFKEFDVSELLQKPQEVPEIQPVVEEQPCSPCDEVVADPPPLTATDTVEATSEEPAAPIPQLIPPEPLKDLPPDEEFVPLPTIQVVPMMNRALEAQSGLLKEPAPPASIQRVTQPGALPPAMPTALMELLSG | soluble
3 | MEKNTIILGIETSCDETAVAVVKNGTEIIANVVASQIESHKRFGGVVPEIASRHHVEEITVVLEEALKEANITFDDIDAIAVTEGPGLVGALLIGVNAAKAVAFAHDIPLVGVHHIAGHIYANRLVKEVQFPLLSLVVSGGHTELVYMKEHGSFEVIGETRDDAAGEAYDKVARTLSMPYPGGPHIDRLAHEGKPTIDLPRAWLEPDSYDFSFSGLKSAVINTVHNAKQRGIEIAPEDLAASFQESVIDVLVTKASRAADAYNVKQVLLAGGVAANKGLRARLETEFAQKENVELIIPPLSLCTDNAAMIAAAGTIAYEQGKRATLALNANPGLDIEA | not soluble
4 | MKFAVIGGTGLIGSQVVKNLNAAGHEAVPHSQSTGIDVISGQGLDQAVAGADVIVNLTNSPTFDEASPAFFQTSMDNLLAAGRKAGVRHFVILSIVGVDQVPELDYYRAKALQEKILAAGPIPYSIVRATQFMEFIDAVLSWTADGDTVRLPATPIQPIAAKDVADAVAEVAAGAPLGGIRNVAGPEIFSLDELGRITLSHKSDGRTVVTDPTAGMFGAVKGDVLTDKDAHLAPTHYADWLS | not soluble
5 | MSLEIPKDFFVKDGEPNVKIVVGSEGAAMDVVSAADIAAAIGSLLYTEKEVKVSDVSVVVRKDITYDPDDIPVFNNFYPNKNQVFIVGQDSLKDVEAWWNGSAFSANYTASVWNGGTYSGTYSLELENVANYGKYDLTGELTLKGITLEEIANNEVNFKDIEDFKDMTVKINSAVLNITLAVYNWTKTVKAKDPITGVTTTKVKWTLSNVQPGAGYSISDTISKGVGEGVTLKVFDKEFPIMFVGKAISKNAIVDAADSFVYGTYHGTDFYDQGQEVEFDGYKVEILDIDIQRNEGHHHHHH | not soluble
6 | MSKTTQSRETTLAGHPVEYEVRRSEDATEPRIDIDIRGVTVVLPAESEESPEALLSENLNWVLETKRTYERHRERAPERRFEPGAAFPYLGDDHEIVVEPRPAHGVGDGEIRLRQSTVDQSSLKRVLENFYRSRAREHLTDRTDALADSMNHTYDRIELRNQRTRWGSCSTNGVLSFNWRLVMAPPDVIDYVVVHELAHLRESGHNDRFWRLVEMEIPEYRELSDWLDTNSVDLIFSKDDLLEHHHHHH | soluble
7 | MRRKIMMATLIVIAVNFIWSGQPVKACTRAVYIGPDNMVITGRTMDWKEDIQSNLYLFPRGIKRAGYNKGNTVEWISKYGSIVATGYDIGTCDGMNEKGLVASLLFLPESIYVRPNDTRPVMGISIWTQYVLDNFATVSEAVEELKKQTFRIDAPDMPNGSASTLHMAITDETGNSAVLEYIDGNLIIHEGKEYQVMTNSPRYDLQLAVNDYWKEVGGLNMLPGTNRSSDRFVRASFYIHAIPQTSDAKIAVPSVLSVMRNVSVPFGITTLDKPYISSTRWRSVSDQKNRVYYFESTLTPNLFWIDLHKVDFSPNASIKKLSLTHGEVYAGDVVKDFKDSRSFTFMFELPK | not soluble
8 | MYIVNSNKSRGSSVERYIVSRLRDKGFAVIRAPASGSKRKDHVPDIIALKSGVIILIEVKSRKNGQKIYIEKEQAEGIREFAKRSGGELFLGVKLPKMLRFIKFDMLRQTEGGNYAIDLETVEKGMELEDLVRYVESKISRTLDSFL | soluble
9 | MYWLFKSEPFKWSWEMQKARGEKGEQWDGVRNYQARNNMRAMKLGDKGFFYHSNEGLEVVGIVEVCALAHPDSTTDDPRWECVDIKAVRDMPKPVTLKDVKANPRLQDMSLVTSMRLSVQPVTEDEWIEVCRMGGLDANDILEHHHHHH | soluble
10 | MAHHHHHHMGQSKTKLQVVMCGLDNSGKTTIINQVKPAQSSSKHITATVGYNVETFEKGRVAFTVFDMGGAKKFRGLWETYYDNIDAVIFVVDSSDHLRLCVVKSEIQAMLKHEDIRRELPGGGRVPFLFFANKMDAAGAKTAAELVEILDLTTLMGDHPFVIFASNALKGTGVHEGFSWLQETASRQSGKAGTKRG | soluble
11 | GPGSMASVSPSETGGTLITFLQQLRGTLVEIELKNASIVSGEIAYVDANMNTYMSHAKITSKGKNPVEVEEYMVRGSTIRYIIMPESLNTYDILKQASTKKNGASKK | soluble
12 | MAYLVAVTACVSGVAHTYMAAERLEKLCLLEKWGVSIETQGALGTENRLADEDIRRADVALLITDIELAGAERFEHCRYVQCSIYAFLREPQRVMSAVRKVLSAPQQTHLILE | soluble
13 | MNKVLINDTTLRDGEQAAGVVFTLEEKVAIAKFLDTIGVPELEVGIPAMGEEEMRAICAISNLGLKANLLAWNRAVISDIKASVACGMERVHIAIPVSGIQIAAKFHGQWRVSLQRLKDCISFAVDQGLWVAVGGEDSSRADENFLLDVALYAQEWGASRFRFCDTVGVLDPFTTYGKVKLLVSALTIPVEVHTHNDFGMATANALAGIKAGASSVNTTVIGLGERAGNAALEEVVMAIKRIYGVDMGIDTPRLLELSQLVAAASGANVPPWKAIVGENTFAHESGIHAHGVLQNPDTYEPFAPEEVGWERRLVVGKHSGRHSVSNLLEQHGLEHHHHHH | soluble
14 | MGSDKIHHHHHHMKSPCILLIIVCTLSLTGCASTKQADSDSSLGKAQQTLDSLYQHYSAKDSYLLRENYPFNEQYKVTYLASENQTNMPNQFSYLWPYSGTFSAVNSLLEATHDKKYQQLLEKQVLPGLEEYFDTERTPIAYSSYIRTAPTSDRFYDDNIWVGIDFIDIYQITKEKKYLDKAQLIWNFIESGTDSLLGDGIYWCEQKKESKNTCSNAPGSVFALKLFKATNDSLYFKRGKELYKWTQKNLQDSTDYLYFDNIRLDGKIGKAKFAYNSGQMMQSAALLYQLTKNPDYLKDAQSIAKECYNYFFTDFTTDTGESLKMLKQGNIWFTAVMLRGFIELYQLDQNKTFIDAFNQCLSYAWDNARDENGLFSTDLTGNNNNEKKWLLTQAAMVEMYSRLATIQ | not soluble
15 | MSLSDKHIKQTVLNSNDNRISPSHVCDIFLPQNGLSERWKAFTRRRFVIAETGFGTGLSFLTACQQFTQFRQANPTATVKELHFISFEQHPLTKSDLIKATEKWPEFAHFSQQLHAHYPPAVSDCHRIVLDEGLITLDLWFGNITDSMPQVWTNDDGIVDAWFTDGFATESNAALLKSLTIINSIAILARENSTIHAITYHQGNQQDVLEQSLTEAGFDMTESHNEGHHHHHH | soluble
16 | MAHHHHHHSLIDCRYYQQNECRSCQWLEIPCSQQLTEKQYHLKQQLISINYDEAQWVAPFQSNQQGFRNKAKMVVSGSVERPILGILKNPNDPQSAIDLCDCPLYPTHFSAIFSILKDFIGRAGLVPYNIAKQKGELKYILLTESIATEKLMLRFVLRTENKLPLIRRELPKLLEKLPHLEVISINLQPQHAAILEGEQEIFLTEQQFLPENFNGIPLFIRPRGFFQTNPKVAAGLYATAQQWVAEFPIYNLWDLFCGVGGFGLHCAKALQEKWGKPIKLTGIEISSSAILAASHSAKILGLEHVNFQSLDAASVIENKNENKPDLVIVNPPRRGIGKELSEFLNQIQPHFILYSSCNAMTMGKDLQHLTCYKPLKIQLFDMFPQTSHYEVLVLLEREG | not soluble
